Laboratory results reported in the DeepSol protein solubility set.

Assay: soluble on expression in E. coli; label from the status in PepcDB or PDB records

Sequence | soluble on expression in E. coli
MSLYSDSVTHCLQTCNSPYQKSEKDHRRLSLFAARLFLYNLALFNQFDISMTQSIWRSVTPQFEQFNKVFENYPNLAPISLIEIQPRLTSALEQFVHLKGFSRILLINAPDNSIYRSLFKDALLEQDLDVPVVSTETLDISEILGQVKVEHGGLVHKTSGYLEQANGGYLIVSANLLLANPRYWPTVKAAVLGETVSPINCDPKSPLPNRLGSSYDVKLIVVGDRTQLGDLDFLDADIHSGLCLFSELELDLKIEEETIEDYLGYLRWLCEQYNLPSLTCSAIQSLMTAGARYTEDQYYAPLCLMWHRALLEEARLESEEPLIDAEHIEIALDKRYLRESYLPERALDDILDGQVIIETQGEQVGQVNGLTVIEVTGHPMPYGEPARISCVIHFGDGDIADVERKVELGGNLHAKGMMIMQAFVSSALNLDGSLPFSASIVFEQSYSEVDGDSASLAELCSLVSALSEYPIDQQIAVTGAVDQFGRVQAVGGLNEKIEGFYRVCCHQGLTGEQGVILPSSNLKHLALHKSVVESIKNGEFNIWPVSTVDEAIPLLMGKPFRGEDEGHHHHHH | not soluble
MGSDKIHHHHHHMAITIQFSNYALKTDETLIQRIQFVYSPLNELFRSLHVLLNPRHHGTNIDWVIRIQNKLTKEFYENLHYFRLFYELGVSPILLCNFRYHATTIEEEIQNLKKFLDELSTAQLIEHLEKVTSDRENSFIPTLARGLEWKDFSLNKDNQLLSDLRKDASSVYQHLFSFVDWYRQEIFDETWESKDIQRKLLTEIQHQASFLKESGFKAMFNHLQIDRIHWRKDRLVIIKPFDKDIQLKDSDSIMLLPSYFIWPHLFVESFNQGIAVTYDITEQPSYYNATPENLITIFKALSDPVRLQIMNYVIDKPSTTQSLAQILVMSNSSVSRHLQILKEANLLTTTKAKKFVLYEPTQLITQLMPNFYHFFKN | not soluble
MGLLIEGRWHDQWYESGKDGAFQREQAQRRNWVTADGRPGPSGEGGFAAEAGRYHLYVSLACPWAHRTLILRKLKGLEQLIDVSVVSWLMRENGWTFDSAHGSSGDALDHFDFMHQRYTADTADYTGRVTVPVLWDKQQQRIVSNESAEIIRMFNSAFDGLTGNGLDFYPQPLRARIDELNARIYPALNNGVYRAGFATSQQAYETAFDDVFAELDALEALLDKQRYLAGEYLTEADVRLFTTLIRFDAVYHGHFKCNLRRIADYPNLSNWLRELYQWPGIAETVDFAHIKGHYYASHTTINPTGIVPKGPLQDFSRAHDRQRLSGQGVWCRGLEHHHHHH | not soluble
MTDYLNVGKIVNTQGIKGEVRVISKTDFPEERYQKGAMLLLFQEKKAPIELVVKSHRKHKNFDILSFEGHPNINDVEKYRDGILKVAKDNLAELAEDEFYYHQIIGATVYDETGSELGKIKEILSPGANDVWVVQRPKKKDLLLPYIEGVVTKVDVENQRIDVDIPEGLIDDENLEHHHHHH | soluble
MSKWIILSDNHKETGILYHIYELHKDADKFLHLGDSEFSYNDTELSLYQRVKGNCDFYPEFLEEEITEENGIRAFYTHGHLYQVNQTRMKLAEKAKELGCLFAFYGHTHVAKYEQIGGIHVINPGSISQSRSQIEETFAELVYKEDENTIILNFRNRENQIIETVKIEFLEHHHHHH | soluble
MVPEVIEIDGKQWRLIWHDEFEGSEVNKEYWTFEKGNGIAYGIPGWGNGELEYYTENNTYIVNGTLVIEARKEIITDPNEGTFLYTSSRLKTEGKVEFSPPVVVEARIKLPKGKGLWPAFWMLGSNIREVGWPNCGEIDIMEFLGHEPRTIHGTVHGPGYSGSKGITRAYTLPEGVPDFTEDFHVFGIVWYPDKIKWYVDGTFYHEVTKEQVEAMGYEWVFDKPFYIILNLAVGGYWPGNPDATTPFPAKMVVDYVRVYSFVSG | soluble
MGSDKIHHHHHHMKELFEFNNVSFSYKDVKEQALVDLNFSIKKGSLTLITGSSGSGKSTLLKLMNGLIPRLYDGKLVGEILFENNSLQSLTQESISKNIGYVSQDPRGQFFTTNTTSELVFSMENFGFTKEHMDKRINELAELLDLSNILDKNIFSLSSGERQKISIGCSLSLNSKLIILDEPSSNLDFQATKKLADLLCDLKNKGFTIVIAEHRFYYLKELIDQVLFVKNRTVKTTTIQLLKTENNNALRKFDIFNSSIEVPYIEKASADVLKVEEITYENILKDINFDVKVGDVIGLVGKNGVGKTTLLRILMKIIRPTKGKIIENKKNLSSPFLVMQEMDYQFFTESVRSELALGNEIVSKDQQEKILKKMELYKMKDQLPFDLSGGEKQRLLVSIASLSKTNLFLFDEPTSGLDYINMERIADLIKDLKEKGAVVIATHDPEFLYKICNRIIYLKNGGIKKDIKLRVEDSTLIEQIFNDITK | not soluble
MGHHHHHHSHMLEILYQDEWLVAVNKPSGWLVHRSWLDRDEKVVVMQTVRDQIGQHVFTAHRLDRPTSGVLLMGLSSEAGRLLAQQFEQHQIQKRYHAIVRGWLMEEAVLDYPLVEELDKIADKFAREDKGPQPAVTHYRGLATVEMPVATGRYPTTRYGLVELEPKTGRKHQLRRHLAHLRHPIIGDSKHGDLRQNRSGAEHFGLQRLMLHASQLSLTHPFTGEPLTIHAGLDDTWMQALSQFGWRGLLPENERVEFSAPSGQDGEISS | soluble
EKGLEIAQERKARDEGWGDSIATMEMILKNAQGESSTRLMRLKSLEVEGDGDKGLTIFDQPRDVTGTAFLNHSHTIGADDQWLYLPALKRVKRISSRNKSGPFMGSEFAYEDLSSFEIEKYRFNHLKDEKFNGQDVFVLEQIPTDKNSGYTKQVVWLDKAHYRPLKVEFYDRKGALLKTLTFANYKQYLDKYWRAHTMAMTNHQTGKSTELNTSDLRFQTGLEENDFNKNVLKR | soluble
MTRQGWLVPCLSHGKDDQLQDELSELSKAYRKKFQTDLHTKSGDIIDPSGEFLYVYLDEENYRICRQSMVLVSNAPDGLIATTLEPYSDSYTFRQVREQLQAFSGDGGRINYSRNEHSSSYFLTIQASNEFKHVGAVRNTFGQSKDIWKRRMPDASQPLDYHLIAVGCSAFLPEAALDDVESDGAVLEHHHHHH | not soluble
MKILILGNGQVGSTVAQNLAAIPNNDVTVIDIDEKALQETGSRLDVQTVFGNGASPFTLERAGAEDADLLLALSRSDETNIVACKVAADLFNIPGRIARVRSSEYLEYLSPKLENNENGSLSIFGITETISPEQLVTEQLAGLIDCPGALQVLRFADDRVRMVIIQARRGGLLVGRSIADIAQDLPDGADCQICAVYRNNRLIVPAPQTVIIEGDEILFAAAAENIGAVIPELRPKETSTRR | not soluble
GSMPKPGILKSKSMFCVIYRSSKRDQTYLYVEKKDDFSRVPEELMKGFGQPQLAMILPLDGRKKLVNADIEKVKQALTEQGYYLQLPPPPEDLLKQHLSVMGQKTDDTNK | soluble
APEERDLTQEQTEKLLQFQDLTGIESMDQCRHTLEQHNWNIEAAVQDRLNEQEGVPSVFNPPPSRPLQVNTADHRIYSYVVSRPQPRGLLGWGYYLIMLPFRFTYYTILDIFRFALRFIRPDPRSRVTDPVGDIVSFMHSFEEKYGRAHPVFYQGTYSQALNDAKRELRFLLVYLHGDDHQDSDEFCRNTLCAPEVISLINTRMLFWACSTNKPEGYRVSQALRENTYPFLAMIMLKDRRMTVVGRLEGLIQPDDLINQLTFIMDANQTYLVSERLEREERNQTQVLRQQQDEAYLASLRADQEKERKKREERERKRRKEEEVQQQKLAEERRRQNLQEEKERKLECLPPEPSPDDPESVKIIFKLPNDSRVERRFHFSQSLTVIHDFLFSLKESPEKFQIEANFPRRVLPCIPSEEWPNPPTLQEAGLSHTEVLFVQDLTDE | soluble
MGSDKIHHHHHHMQIVPLHSSHYPHIASVFHQAVRAAAGKGYTQAQCEAWSRGVRDRRYWRSRLGRSLVLVALNVDEVVGFIDCELEHPDKGYIGHLYVAPTHQGRGIGGKLLDALIRQAPALGIGSLTTDASLHSEPLFAAKGFSNVGRYFQQKSGQVLPGFAMTLPLPFYIDRMQGSDLASIARLFHEAVQGASEYYSEAERHAWSAALRDEATWQGKLAPSKVWVARKDSGIMGFINLLPKSIGEAEIDCLFTSPVLTRCGVATSLYWVLEQQARRDGVRRLSVEASYFARPFFQSRGFTELSRNEHPRHGQILVNFSMEKWLSRPEGG | not soluble
MLKVIRRFFTAKQRQTPAKQDVELESGRGWAGLEEWRLVAKYSVGPVEYYLYRDNSEGVRLTFKEPPEPGEAVVKEIIAGNIEPVGEGERYHAEKRMSGYGRLYPLIIDGHIEEIAFEGPGRGVSVIHSLVPGRWIDVDLKLGEDEANSLALQLARKAGRSLSLAQPLAEGLTGEGHRVAVTFSREVSRFGSSFVIRKYPEKPVTMADLVASRVLTPLQAAYLWLLVESQQFIVVSGPMGSGKTTLLQALAGLIPPFYRVITIEDTPEIRLYNRHWDSLVTRPPLPGESMVEVDLEALLRFALRRRAEYIIVGEVRGREARLLAQAAASGHGSMTTMHGDTPEGVILRLQLEPISLPPVFLSLIGAIVMLRRLPGYGGAVRRRVVSITEIEGGEAVDVFAWDPKGDLVSPDNPRDIVESSFRLREAVSRIPDLITDLEAELSERAGLLEKLAGSPPEVFHKALARFYSERYGRV | soluble
MASSVVFAATGSLSVPPLKSRRFYVNSSLDSDVSDMSVNAPKGLFPPEPVPYKGPKLKVAIIGAGLAGMSTAVELLDQGHEVDIYDSRTFIGGKVGSFVDRRGNHIEMGLHVFFGCYNNLFRLMKKVGAEKNLLVKDHTHTFINKDGTIGELDFRFPVGAPIHGIRAFLVTNQLKPYDKLRNSLALALSPVVKALVDPDGAMRDIRNLDSISFSDWFLSKGGTRASIQRMWDPVAYALGFIDCDNMSARCMLTIFSLFATKTEASLLRMLKGSPDVYLSGPIKQYITDRGGRIHLRWGCREILYDKSADGETYVTGLAISKATNKKIVKADVYVAACDVPGIKRLLPKEWRESRFFNDIYELEGVPVVTVQLRYNGWVTELQDIELARQLKRAVGLDNLLYTPDADFSCFADLALASPADYYIEGQGTLLQCVLTPGDPYMRMPNDKIIEKVAMQVTELFPSSRGLEVTWSSVVKIAQSLYREAPGKDPFRPDQKTPIKNFFLAGSYTKQDYIDSMEGATLSGRQASSYICDAGEELAELNKKLSSSATAVPDELSLV | not soluble
MTTMGEDEAPALPKKSPLPEKIDEADVDDDPDDKVIKIVVVGDGASGKTSICQRFAKESFDKSYHQTLGLDFFSRRITLPHEMQVLVQVWDIGGQSIAGEMIDKYLTGANIVFLVYDVTNSKSFENAVDWLSVVKKNTKSSETPVKLVLMGNKTDLEERRVVSVEAHKNFATSNDMMPTYVSAKTGDTVFLTFRQAVAEVLNVGLSRAEVEADIEIVQGSVIEQPKQSDASYARRSDQSRSTSVCSIT | soluble
MGNAAAYQRYRRPDCATEIDFSTENHSGREKIMSESLSWMQTGDTLALSGELDQDVLLPLWEMREEAVKGITCIDLSRVSRVDTGGLALLLHLIDLAKKQGNNVTLQGVNDKVYTLAKLYNLPADVLPR | not soluble
SLPKQIDTILINIGQLLTMESSGPRAGKSMQDLHVIEDAVVGIHEQKIVFAGQKGAEAGYEADEIIDCSGRLVTPGLVDPHTHLVFGGSREKEMNLKLQGISYLDILAQGGGILSTVKDTRAASEEELLQKAHFHLQRMLSYGTTTAEVKSGYGLEKETELKQLRVAKKLHESQPVDLVSTFMGAHAIPPEYQNDPDDFLDQMLSLLPEIKEQELASFADIFTETGVFTVSQSRRYLQKAAEAGFGLKIHADEIDPLGGAELAGKLKAVSADHLVGTSDEGIKKLAEAGTIAVLLPGTTFYLGKSTYARARAMIDEGVCVSLATDFNPGSSPTENIQLIMSIAALHLKMTAEEIWHAVTVNAAYAIGKGEEAGQLKAGRSADLVIWQAPNYMYIPYHYGVNHVHQVMKNGTIVVNREGAILG | soluble
MKCVEVHVIDSSAIFQRKAVYRNMVTVPEVVAEILDEASALYFSVKNFRVEEASPESVEEVKEAARKTGDIHKLSDTDIKVLAKALDEIKKGNEVVLVTDDYAIQNVAMSLGIRFDGILHRQISKEFKWVKVCRGCGRRIESEICPVCGSEAIIRRVKNDKNRNSG | not soluble
